Patent JP2013172663A (dated 2013)

Target: T1, ヒト心筋由来トロポニンI (human, UniProt P19429 2-210)
T1 construct: It is not the protein on the chip; also called human cardiac troponin I; cTnI
Test: SPR (Biacore T100), troponin I on a CM5 chip, scFv as analyte

T1 sequence (P19429 2-210 limits assumed): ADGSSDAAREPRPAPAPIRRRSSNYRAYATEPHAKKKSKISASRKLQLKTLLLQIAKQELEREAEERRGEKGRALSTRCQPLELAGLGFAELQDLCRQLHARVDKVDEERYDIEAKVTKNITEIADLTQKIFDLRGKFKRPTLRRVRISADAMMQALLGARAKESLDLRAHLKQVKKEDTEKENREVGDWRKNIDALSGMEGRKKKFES

binding result: binds
B1: 野生型scFv抗体フラグメント(配列番号:62) (scFv)
scFv: DVVLTQSPLTLSVTIGQPASISCKSSQSLLDSDGKTYLNWLLQRPGQSPKRLIYLVSKLDSGVPDRFTGSGSGTDFTLKISRVEAEDLGVYYCWQGTHFPLTFGAGTKLEIKRGGGGSGGGGSGGGGSQLQLQQSGAELVRSGASVKLSCTASGFNIKDYYMNWVKQRPEQGLEWIGWIDPANGDTAYAPRFQVKATMTADKSSNTAYLQLSSLTSEDTAVYYCNADLPMDQWGQGTSVTVSSAAALEHHHHHH
notes: also called 野生scFv抗体フラグメント; 野生型scFv抗体フラグメント
